Measured values from patent US20240199746A1 (published 2024).
Where a chain is given by its changes, count along the chain named. Blank lines part the entries; values can stand above or below the binder they belong to.

Tests used:
[1] = target: T1, Ax1 protein, extracellular domain (human, UniProt P30530 26-451); experiment: ELISA, mutant diluted 1:3
T1 construct: extracellular domain; also called Axl; Ark
T1 sequence (looked up): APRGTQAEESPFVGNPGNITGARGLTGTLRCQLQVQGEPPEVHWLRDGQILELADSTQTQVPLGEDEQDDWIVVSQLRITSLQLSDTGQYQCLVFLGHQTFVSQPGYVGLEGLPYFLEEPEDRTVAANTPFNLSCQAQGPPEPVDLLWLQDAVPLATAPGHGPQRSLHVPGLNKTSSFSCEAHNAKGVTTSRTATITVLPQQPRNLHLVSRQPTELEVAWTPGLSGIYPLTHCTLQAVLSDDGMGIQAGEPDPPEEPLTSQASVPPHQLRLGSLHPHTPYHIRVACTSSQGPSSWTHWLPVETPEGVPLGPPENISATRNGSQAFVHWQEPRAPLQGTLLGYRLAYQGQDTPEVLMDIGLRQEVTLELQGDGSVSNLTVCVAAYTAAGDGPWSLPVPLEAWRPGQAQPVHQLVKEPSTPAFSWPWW
Text: (§1) The DNA encoding the wild-type antibody was evolved to generate a mutant antibody library using Comprehensive Positional Evolution (CPE), which each position in the template antibody is randomized one at a time. Each mutant antibody in the library has only one single point mutation. The mutant antibodies in the library were generated by simultaneously screening for selective binding affinity to Ax1 at pH 6.0 over pH 7.4 by ELISA. Two mutant antibody dilutions were used: 1:3 and 1:9 dilutions.

[2] = target: T1, Ax1 protein, extracellular domain; experiment: ELISA, mutant diluted 1:9
Text: as §1

B1: HC-S103D (antibody, V domains shown)
VH: EVQLVQSGAEVKKPGATVKISCKVSGYSFTGHTMNWIRQPPGKGLEWIGLIKPSNGGTSYNQKFKGRVTISADKSISTAYLQWSSLKASDTAMYYCAHGHYEDYFAMDYWGQGTLVTVSS
VL: DIQMTQSPSSLSASVGDRVTITCKASQDVSSAVAWYQQKPGQAPRLLIYWASTRHTGVPSRFSGSGSGTEFTLTISSLQPDDFATYYCQEHFSTPLTFGQGTKVEIK
notes: CPE single point mutant
Affinity ELISA CPE mutant ratio (1:3, pH 6.0/7.4) [1]: 4.24
Affinity ELISA CPE mutant ratio (1:9, pH 6.0/7.4) [2]: 2.23

B4: LC-H091C (antibody, V domains shown)
VH: B1 VH with D103S
VL: B1 VL with H91C
notes: CPE single point mutant
Affinity ELISA CPE mutant ratio (1:3, pH 6.0/7.4) [1]: 4
Affinity ELISA CPE mutant ratio (1:9, pH 6.0/7.4) [2]: 3.02

B6: LC-F092N (antibody, V domains shown)
VH: B1 VH with D103S
VL: B1 VL with F92N
notes: CPE single point mutant
Affinity ELISA CPE mutant ratio (1:3, pH 6.0/7.4) [1]: 1.93
Affinity ELISA CPE mutant ratio (1:9, pH 6.0/7.4) [2]: 2

B8: LC-A032L (antibody, V domains shown)
VH: B1 VH with D103S
VL: B1 VL with A32L
notes: CPE single point mutant
Affinity ELISA CPE mutant ratio (1:3, pH 6.0/7.4) [1]: 1.9
Affinity ELISA CPE mutant ratio (1:9, pH 6.0/7.4) [2]: 2.27

B9: LC-F092C (antibody, V domains shown)
VH: B1 VH with D103S
VL: B1 VL with F92C
notes: CPE single point mutant
Affinity ELISA CPE mutant ratio (1:3, pH 6.0/7.4) [1]: 3.86
Affinity ELISA CPE mutant ratio (1:9, pH 6.0/7.4) [2]: 4.58

B10: LC-A051N (antibody, V domains shown)
VH: B1 VH with D103S
VL: B1 VL with A51N
notes: CPE single point mutant
Affinity ELISA CPE mutant ratio (1:3, pH 6.0/7.4) [1]: 1.41
Affinity ELISA CPE mutant ratio (1:9, pH 6.0/7.4) [2]: 2.2

B11: LC-A034D (antibody, V domains shown)
VH: B1 VH with D103S
VL: B1 VL with A34D
notes: CPE single point mutant
Affinity ELISA CPE mutant ratio (1:3, pH 6.0/7.4) [1]: 3
Affinity ELISA CPE mutant ratio (1:9, pH 6.0/7.4) [2]: 2.6

B12: LC-A032M (antibody, V domains shown)
VH: B1 VH with D103S
VL: B1 VL with A32M
notes: CPE single point mutant
Affinity ELISA CPE mutant ratio (1:3, pH 6.0/7.4) [1]: 4.76
Affinity ELISA CPE mutant ratio (1:9, pH 6.0/7.4) [2]: 2.92

B13: LC-H091L (antibody, V domains shown)
VH: B1 VH with D103S
VL: B1 VL with H91L
notes: CPE single point mutant
Affinity ELISA CPE mutant ratio (1:3, pH 6.0/7.4) [1]: 2.17
Affinity ELISA CPE mutant ratio (1:9, pH 6.0/7.4) [2]: 2.44

B14: HC-T033I (antibody, V domains shown)
VH: B1 VH with T33I, D103S
VL: B1 VL
notes: CPE single point mutant
Affinity ELISA CPE mutant ratio (1:3, pH 6.0/7.4) [1]: 1.59
Affinity ELISA CPE mutant ratio (1:9, pH 6.0/7.4) [2]: 1

B15: HC-S103Q (antibody, V domains shown)
VH: B1 VH with D103Q
VL: B1 VL
notes: CPE single point mutant
Affinity ELISA CPE mutant ratio (1:3, pH 6.0/7.4) [1]: 0.912
Affinity ELISA CPE mutant ratio (1:9, pH 6.0/7.4) [2]: 2.26

B16: LC-F092G (antibody, V domains shown)
VH: B1 VH with D103S
VL: B1 VL with F92G
notes: CPE single point mutant
Affinity ELISA CPE mutant ratio (1:3, pH 6.0/7.4) [1]: 3.69
Affinity ELISA CPE mutant ratio (1:9, pH 6.0/7.4) [2]: 4.76

B17: LC-A051P (antibody, V domains shown)
VH: B1 VH with D103S
VL: B1 VL with A51P
notes: CPE single point mutant
Affinity ELISA CPE mutant ratio (1:3, pH 6.0/7.4) [1]: 1.92
Affinity ELISA CPE mutant ratio (1:9, pH 6.0/7.4) [2]: 1.57

B18: LC-F092D (antibody, V domains shown)
VH: B1 VH with D103S
VL: B1 VL with F92D
notes: CPE single point mutant
Affinity ELISA CPE mutant ratio (1:3, pH 6.0/7.4) [1]: 2.97
Affinity ELISA CPE mutant ratio (1:9, pH 6.0/7.4) [2]: 2.94

B20: LC-F092E (antibody, V domains shown)
VH: B1 VH with D103S
VL: B1 VL with F92E
notes: CPE single point mutant
Affinity ELISA CPE mutant ratio (1:3, pH 6.0/7.4) [1]: 1.76
Affinity ELISA CPE mutant ratio (1:9, pH 6.0/7.4) [2]: 2

B21: HC-Y104P (antibody, V domains shown)
VH: B1 VH with D103S, Y104P
VL: B1 VL
notes: CPE single point mutant
Affinity ELISA CPE mutant ratio (1:3, pH 6.0/7.4) [1]: 2.54
Affinity ELISA CPE mutant ratio (1:9, pH 6.0/7.4) [2]: 2.42

B23: LC-A034Q (antibody, V domains shown)
VH: B1 VH with D103S
VL: B1 VL with A34Q
notes: CPE single point mutant
Affinity ELISA CPE mutant ratio (1:3, pH 6.0/7.4) [1]: 2
Affinity ELISA CPE mutant ratio (1:9, pH 6.0/7.4) [2]: 1.41

B24: LC-A051I (antibody, V domains shown)
VH: B1 VH with D103S
VL: B1 VL with A51I
notes: CPE single point mutant
Affinity ELISA CPE mutant ratio (1:3, pH 6.0/7.4) [1]: 2.24
Affinity ELISA CPE mutant ratio (1:9, pH 6.0/7.4) [2]: 2.14

B25: HC-T030A (antibody, V domains shown)
VH: B1 VH with T30A, D103S
VL: B1 VL
notes: CPE single point mutant
Affinity ELISA CPE mutant ratio (1:3, pH 6.0/7.4) [1]: 1.29
Affinity ELISA CPE mutant ratio (1:9, pH 6.0/7.4) [2]: 1.76

B28: LC-F092S (antibody, V domains shown)
VH: B1 VH with D103S
VL: B1 VL with F92S
notes: CPE single point mutant
Affinity ELISA CPE mutant ratio (1:3, pH 6.0/7.4) [1]: 3.18
Affinity ELISA CPE mutant ratio (1:9, pH 6.0/7.4) [2]: 2.94

B29: HC-Y101N (antibody, V domains shown)
VH: B1 VH with Y101N, D103S
VL: B1 VL
notes: CPE single point mutant
Affinity ELISA CPE mutant ratio (1:3, pH 6.0/7.4) [1]: 2.17
Affinity ELISA CPE mutant ratio (1:9, pH 6.0/7.4) [2]: 2.91

B31: LC-A034N (antibody, V domains shown)
VH: B1 VH with D103S
VL: B1 VL with A34N
notes: CPE single point mutant
Affinity ELISA CPE mutant ratio (1:3, pH 6.0/7.4) [1]: 2.63
Affinity ELISA CPE mutant ratio (1:9, pH 6.0/7.4) [2]: 2.4

Second part, the binder after the results:

Affinity ELISA CPE mutant ratio (1:3, pH 6.0/7.4) [1]: 1.76
Affinity ELISA CPE mutant ratio (1:9, pH 6.0/7.4) [2]: 1.34
B2: LC-H091S (antibody, V domains shown)
VH: B1 VH with D103S
VL: B1 VL with H91S
notes: CPE single point mutant

Affinity ELISA CPE mutant ratio (1:3, pH 6.0/7.4) [1]: 2.5
Affinity ELISA CPE mutant ratio (1:9, pH 6.0/7.4) [2]: 2.75
B3: LC-P095H (antibody, V domains shown)
VH: B1 VH with D103S
VL: B1 VL with P95H
notes: CPE single point mutant

Affinity ELISA CPE mutant ratio (1:3, pH 6.0/7.4) [1]: 3.95
Affinity ELISA CPE mutant ratio (1:9, pH 6.0/7.4) [2]: 2.89
B5: LC-P095D (antibody, V domains shown)
VH: B1 VH with D103S
VL: B1 VL with P95D
notes: CPE single point mutant

Affinity ELISA CPE mutant ratio (1:3, pH 6.0/7.4) [1]: 3.84
Affinity ELISA CPE mutant ratio (1:9, pH 6.0/7.4) [2]: 3.47
B7: LC-P095K (antibody, V domains shown)
VH: B1 VH with D103S
VL: B1 VL with P95K
notes: CPE single point mutant

Affinity ELISA CPE mutant ratio (1:3, pH 6.0/7.4) [1]: 7.12
Affinity ELISA CPE mutant ratio (1:9, pH 6.0/7.4) [2]: 7.51
B19: LC-P095E (antibody, V domains shown)
VH: B1 VH with D103S
VL: B1 VL with P95E
notes: CPE single point mutant

Affinity ELISA CPE mutant ratio (1:3, pH 6.0/7.4) [1]: 2.52
Affinity ELISA CPE mutant ratio (1:9, pH 6.0/7.4) [2]: 2.99
B22: LC-P095A (antibody, V domains shown)
VH: B1 VH with D103S
VL: B1 VL with P95A
notes: CPE single point mutant

Affinity ELISA CPE mutant ratio (1:3, pH 6.0/7.4) [1]: 2.35
Affinity ELISA CPE mutant ratio (1:9, pH 6.0/7.4) [2]: 2.63
B26: LC-P095C (antibody, V domains shown)
VH: B1 VH with D103S
VL: B1 VL with P95C
notes: CPE single point mutant

Affinity ELISA CPE mutant ratio (1:3, pH 6.0/7.4) [1]: 4.13
Affinity ELISA CPE mutant ratio (1:9, pH 6.0/7.4) [2]: 1.17
B27: LC-H091V (antibody, V domains shown)
VH: B1 VH with D103S
VL: B1 VL with H91V
notes: CPE single point mutant

Affinity ELISA CPE mutant ratio (1:3, pH 6.0/7.4) [1]: 2.84
Affinity ELISA CPE mutant ratio (1:9, pH 6.0/7.4) [2]: 3.51
B30: LC-P095S (antibody, V domains shown)
VH: B1 VH with D103S
VL: B1 VL with P95S
notes: CPE single point mutant

Affinity ELISA CPE mutant ratio (1:3, pH 6.0/7.4) [1]: 3.78
Affinity ELISA CPE mutant ratio (1:9, pH 6.0/7.4) [2]: 3.7
B32: LC-H091T (antibody, V domains shown)
VH: B1 VH with D103S
VL: B1 VL with H91T
notes: CPE single point mutant

Affinity ELISA CPE mutant ratio (1:3, pH 6.0/7.4) [1]: 3.93
Affinity ELISA CPE mutant ratio (1:9, pH 6.0/7.4) [2]: 5.13
B33: LC-H091Y (antibody, V domains shown)
VH: B1 VH with D103S
VL: B1 VL with H91Y
notes: CPE single point mutant
